Experimental findings from patent US20090117640 are described below.

In series [1] the target is hGH mutant Q141N, P01241.
Series [2] concerns the target hGH mutant Q40N, P01241.

Chain of hGH mutant Q141N, P01241 (P01241 27-217 Q167N): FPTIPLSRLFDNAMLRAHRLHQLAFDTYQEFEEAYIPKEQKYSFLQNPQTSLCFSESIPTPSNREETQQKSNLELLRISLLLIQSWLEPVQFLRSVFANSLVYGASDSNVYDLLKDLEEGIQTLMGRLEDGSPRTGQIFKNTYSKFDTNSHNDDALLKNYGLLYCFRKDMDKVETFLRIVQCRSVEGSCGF
Chain of hGH mutant Q40N, P01241 (P01241 27-217 Q66N): as the sequence (P01241 27-217 Q167N) above, with Q40N, N141Q counted along it

B1: TGase from Streptoverticillium ladakanum (protein)
chain: DSDERVTPPAEPLDRMPDPYRPSYGRAETIVNNYIRKWQQVYSHRDGRKQQMTEEQREWLSYGCVGVTWVNSGQYPTNRLAFAFFDEDKYKNELKNGRPRSGETRAEFEGRVAKDSFDEAKGFQRARDVASVMNKALENAHDEGAYLDNLKKELANGNDALRNEDARSPFYSALRNTPSFKDRNGGNHDPSKMKAVIYSKHFWSGQDRSGSSDKRKYGDPEAFRPDRGTGLVDMSRDRNIPRSPTSPGESFVNFDYGWFGAQTEADADKTVWTHGNHYHAPNGSLGAMHVYESKFRNWSDGYSDFDRGAYVVTFVPKSWNTAPDKVKQGWP
In the case of B1, in series [1], the “HPLC peak area of product-Q40” value was “The first peak (19.2 min, area 127) is product-Q40”; the Q141N (remaining substrate, normalized to 100) (normalized peak area (sum 100)) came to 90; the product-Q40 (normalized to 100) (normalized peak area (sum 100)) came to 10. In series [2], the “HPLC peak area of product-Q141” value was “The first peak (26.5 min, area 1238) is product-Q141”; the Q40N (remaining substrate, normalized to 100) (normalized peak area (sum 100)) is 23; the product-Q141 (normalized to 100) (normalized peak area (sum 100)) is 77.

B2: TGase from S. mobaraense (wild type) (protein)
chain: DSDDRVTPPAEPLDRMPDPYRPSYGRAETVVNNYIRKWQQVYSHRDGRKQQMTEEQREWLSYGCVGVTWVNSGQYPTNRLAFASFDEDRFKNELKNGRPRSGETRAEFEGRVAKESFDEEKGFQRAREVASVMNRALENAHDESAYLDNLKKELANGNDALRNEDARSPFYSALRNTPSFKERNGGNHDPSRMKAVIYSKHFWSGQDRSSSADKRKYGDPDAFRPAPGTGLVDMSRDRNIPRSPTSPGEGFVNFDYGWFGAQTEADADKTVWTHGNHYHAPNGSLGAMHVYESKFRNWSEGYSDFDRGAYVITFIPKSWNTAPDKVKQGWP
With B2, in series [1], the “HPLC peak area of product-Q40” value is reported as “The first peak (19.5 min, area 296) is product-Q40”; the Q141N (remaining substrate, normalized to 100) (normalized peak area (sum 100)) turned out to be 81; the product-Q40 (normalized to 100) (normalized peak area (sum 100)) was determined as 19. In series [2], the “HPLC peak area of product-Q141” value is given as “The first peak (26.9 min, area 1283) is product-Q141”; the Q40N (remaining substrate, normalized to 100) (normalized peak area (sum 100)) was determined as 29; the product-Q141 (normalized to 100) (normalized peak area (sum 100)) was 71.
